Experimental data reported in the supplement of paper PMC9170038.

Test system: MS2 coat protein
Experiment: apparent KD of MS2 coat protein; designed switch direction (-1 OFF switch, 1 ON switch): 1; higher = weaker reporter binding
Procedure, shortened: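 An oligonucleotide input, 200 uM small-molecule ligand, or no input was present during titration of SNAP-549-labelled MS2 coat protein, which was doubled from 0.7 or 1.5 nM to 3 µM. Designed RNA switches had been transcribed on Illumina chips by stalled E. coli RNA polymerase. Apparent KD per design is the median over clusters of curves fitted to normalised cluster fluorescence.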

[1] = input ligand: microRNA oligo, concentration not stated
[2] = Eterna round: R95, input ligand: FMN 200 uM
[3] = Eterna round: R95, input ligand: microRNA oligo, concentration not stated
[4] = Eterna round: R95, input ligand: none

Row | Sequence | apparent KD of MS2 coat protein (input ligand: FMN 200 uM) [nM] | apparent KD of MS2 coat protein [1] [nM] | apparent KD of MS2 coat protein (input ligand: none) [nM] | apparent KD of MS2 coat protein [2] [nM] | apparent KD of MS2 coat protein [3] [nM] | apparent KD of MS2 coat protein [4] [nM]
1 | UUGAAGAAUAUAGGAUAUUGAAUACAUAUGUUUAACAUGAGGAUCACCCAUGUGGGUUGCGGUAUCGAGAAGGAUAAAUAAUAG [Mat - Same State NG 2 - JL mod - D13] (Eterna round: R96, puzzle: Same State NG 2) | 196 | 122 | 190 | – | – | –
2 | UUGAAGAAUAUAGGAUAUUGAAUACAUAUGUUUAACAUGAGGAUCACCCAUGUGGGUUGCGGUAUCGAGAAGGAUAAUUACUAG [Mat - Same State NG 2 - JL mod - D12] (Eterna round: R96, puzzle: Same State NG 2) | 185 | 131 | 140 | – | – | –
3 | UUGAAGAAUUAAGGAUAUCGAGUCGUCAGAUUAAACAUGAGGAUCACCCAUGUGGGUUGCGGUAUCGAGAAGGUAAAUUACAAG [JL JR Sub099 mod 2] (Eterna round: R96, puzzle: Same State NG 2) | 20.5 | 27.2 | 39.9 | – | – | –
4 | UUGAAGAAUUAAGGAUAUCGAGUCGUCAGAUUAUACAUGAGGAUCACCCAUGUGGGUUGCGGUAUCGAGAAGGUAAAUUACAAG [JL JR Sub099 mod 5] (Eterna round: R96, puzzle: Same State NG 2) | 37.5 | 58.4 | 60 | – | – | –
5 | UUGAAGAAUUAAGGAUAUUGAAUACAUAUGUUUAACAUGAGGAUCACCCAUGUGGGUUGCGGUAUCGAGAAGGUAAAUAAAUAG [Mat - Same State NG 2 - JL mod - D3] (Eterna round: R96, puzzle: Same State NG 2) | 169 | 110 | 159 | – | – | –
6 | UUGAAGAAUUAAGGAUAUUGAAUACAUAUGUUUAACAUGAGGAUCACCCAUGUGGGUUGCGGUAUCGAGAAGGUAAAUUAAAAG [Mat - Same State NG 2 - JL mod - D2] (Eterna round: R96, puzzle: Same State NG 2) | 142 | 179 | 131 | – | – | –
7 | UUGAAGAAUUAAGGAUAUUGAGUACAUAUGUUUAACAUGAGGAUCACCCAUGUGGGUUGCGGUAUCGAGAAGGUAAAUUACUAG [JL SSNG2 1.45] (Eterna round: R96, puzzle: Same State NG 2) | 91.2 | 76.1 | 155 | – | – | –
8 | UUGAAGAAUUAAGGAUAUUGAUUACAUAUGUUUAACAUGAGGAUCACCCAUGUGGGUUGCGGUAUCGAGAAGGUAAAUUACUAG [JL SSNG2 1.47] (Eterna round: R96, puzzle: Same State NG 2) | 137 | 122 | 162 | – | – | –
9 | UUGAAUAAUUAAGGAUAUCGAGUCAAGAUGUUAAACAUGAGGAUCACCCAUGUGGGUUGCGGUAUCGAGAAGGUAAAUAAUAAG [Mat - Same State NG 2 - JL mod - D56] (Eterna round: R96, puzzle: Same State NG 2) | 38.6 | 28.8 | 36.5 | – | – | –
10 | UUGAUUAGAAAUUAACAUGAGGAUCACCCAUGUAUUGGAUCAGAGGAUAUGCAUGUUUGAUAGUAGCAGAAGGCUGAUGGUGGA [JR_SSNG3_Sub027] (Eterna round: R96, puzzle: Same State NG 3) | 68.3 | 44.2 | 45.8 | – | – | –
11 | UUGCAGUCAGGUGAGGAUAUCAUGAGUUUAACAUGAGGAUCACCCAUGUGCUGCCUUGCAGCAUAUGAGAAGGCACCUGGCUGCU [JL-ss2-3.03 Brourd Mod] (puzzle: Same State 2) | – | – | – | 132 | 295 | 535
12 | UUGCGCUGUCGAGAGGAUAUGCGGUGUUGGACAUGAGGAUCACCCAUGUUAGCGAUAGCAUUACGGUAGAAGGCUCUUCAGCUGC [salish99_ss2_r3_096] (puzzle: Same State 2) | – | – | – | 23.4 | 17 | 21.9
13 | UUGCGGAAUUAAGGAUAUUGAGUACAUAUGUUUAACAUGAGGAUCACCCAUGUGGGUUGCGGUAUCGAGAAGGUAAAUUACUAC [salish99_SSNG2_r04_802] (Eterna round: R96, puzzle: Same State NG 2) | 130 | 88.8 | 105 | – | – | –
14 | UUGCUUCUCGUAGGAUAUGUAGGAUAUUCCUACAUGAGGAUCACCCAUGUUCGCAUGGAAGAAGGACAGAAGGACGAUCACCCU [pwkr ssNG2 2FMN + 1F5.10] (Eterna round: R96, puzzle: Same State NG 2) | 330 | 234 | 271 | – | – | –
15 | UUGGUGUAGAUACAGGAUAUGUUGCUCGUAACAUGAGGAUCACCCAUGUAUCUAUGAGAUUAAAUGCAGAAGGGUGCACACCACU [salish99_ss2_r3_087] (puzzle: Same State 2) | – | – | – | 39.6 | 341 | 541
16 | UUGUUUAACGUAGGAUAUCGACCUACAUGAGGAUCACCCAUGUCUUUGUAUAGUUUUUUUUGUUACGAGAAGGACGUUUUGUAU [JR_SSNG2_Sub068] (Eterna round: R96, puzzle: Same State NG 2) | 68.6 | 140 | 170 | – | – | –

Row | Sequence | apparent KD of MS2 coat protein (input ligand: FMN 200 uM) [nM] | apparent KD of MS2 coat protein [1] [nM] | apparent KD of MS2 coat protein (input ligand: none) [nM] | apparent KD of MS2 coat protein [2] [nM] | apparent KD of MS2 coat protein [3] [nM] | apparent KD of MS2 coat protein [4] [nM]
17 | UUGUUUCGUCAUUAACAUGAGGAUCACCCAUGUAAAGAACCAGAGGAUAUGCAUGUUUGAUUGUAGCAGAAGGCUGAUUGUUGU [JR_SSNG3_Sub033] (Eterna round: R96, puzzle: Same State NG 3) | – | 42.7 | – | – | – | –
18 | UUGUUUCGUCAUUAACAUGAGGAUCACCCAUGUAUCGUCUCAAAGGAUAUAUAUGCUUGUUUGCUAUAGAAGGUUGAUUGUUGU [JR_SSNG3_Sub093] (Eterna round: R96, puzzle: Same State NG 3) | – | 91.6 | – | – | – | –
19 | UUGUUUUGAAAUUAACAUGAGGAUCACCCAUGUCGUGAGACAGAGGAUAUACAGGAAUGUAGGUAGUAGAAGGCUGUUUAGUGU [JR_SSNG3_Sub099] (Eterna round: R96, puzzle: Same State NG 3) | 99.4 | 95.6 | 142 | – | – | –
20 | UUGUUUUGUAAUUAACAUGAGGAUCACCCAUGUCUUGGCACAGAGGAUAUACAUGUUUGUUUGUAGUAGAAGGCUGUUUAUUGU [JR_SSNG3_Sub096] (Eterna round: R96, puzzle: Same State NG 3) | 128 | 116 | 198 | – | – | –
21 | UUUACUUUCAUAGGAUAUCAUGCGAAAAUUGCGUGAGAAGGGUGAACACUGUCUUUCUAAGAGUACAUGAGGAUCACCCAUGUA [SameState NG1 #65] (Eterna round: R96, puzzle: Same State NG 1) | 113 | 102 | 131 | – | – | –
22 | UUUACUUUCAUAGGAUAUCAUGCGAAAAUUGCGUGAGAAGGGUGAAUACUGUCUUUCUAAGAGUACAUGAGGAUCACCCAUGUA [SameState NG1 #64] (Eterna round: R96, puzzle: Same State NG 1) | 56.9 | 45.8 | 51.2 | – | – | –
23 | UUUAGAUAGCGAGGAUAUCGCGAGGAUCACCCGUGAGAAGGCGCAGAGCCGAGGAUCACCCGGCUGAUCCUGAGAAGGAGGUCA (Eterna round: R96, puzzle: Same State NG 1) | 92.3 | 155 | 245 | – | – | –
24 | UUUAGAUCGCGAGGAUAUCGCGAGGAUCACCCGUGAGAAGGCGCAGAGCCGAGGAUCACCCGGCUGAUCCUGAGAAGGAGGUCA (Eterna round: R96, puzzle: Same State NG 1) | 91.7 | 206 | 250 | – | – | –
25 | UUUAGUUGCGCGCAGGAUAUGUAUUAAUAUACAUGAGGAUCACCCAUGUGAGAUCGAAUAGAUCUGCAGAAGGGCGAAUCGCGAC [Laonerce - 27] (puzzle: Same State 2) | – | – | – | 52.7 | 361 | 772
26 | UUUAGUUGCGGGCAGGAUAUGUAUUAAAAUACAUGAGGAUCACCCAUGUGAGACCAUAAAGGUCUACAGAAGGGCCAAUCGCGAC [Laonerce - 19] (puzzle: Same State 2) | – | – | – | 14.9 | 89 | 88.1
27 | UUUAGUUGCGGGCAGGAUAUGUAUUAAAAUACAUGAGGAUCACCCAUGUGAGAUCAUAAAGAUCUACAGAAGGGCCAAUCGCGAC [Laonerce - 18] (puzzle: Same State 2) | – | – | – | 13.4 | 69.4 | 91.6
28 | UUUAGUUGCGGGCAGGAUAUGUAUUAAAAUACAUGAGGAUCACCCAUGUGAGGUCAUAAAGACCUGCAGAAGGGCCAAUCGCGAC [Laonerce - 17] (puzzle: Same State 2) | – | – | – | 11.5 | 86.8 | 48.3
29 | UUUAUAUUCAGAGGAUAUUGAUGUUGUAUUUUACAAGAAGGCUGAUUGUUUUGUAAUGUUAUUAAACAUGAGGAUCACCCAUGU [JR_SSNG1_Sub013] (Eterna round: R96, puzzle: Same State NG 1) | 19.7 | 22.5 | 27.3 | – | – | –
30 | UUUCUACAUGAGGAUCACCCAUGUCAACAAAGUCGAGGAUAUGGGCAUAUUAUCUUAUUUCCAGAAGGCGAUUUCU [salish99_ss1_r3_092] (puzzle: Same State 1) | – | – | – | – | 101 | –
31 | UUUGCAUGACGAGGAUAUCAUUUAUUUCUUGAUUGAGAAGGCGUUCUUUUUAAUACCUAACAUGAGGAUCACCCAUGUGACAGU [JR_SSNG1_Sub047] (Eterna round: R96, puzzle: Same State NG 1) | – | 13.1 | – | – | – | –
